Assay results taken from patent US20150191520A1 (MEDIZINISCHE UNIVERSIT T WIEN, published 2015).
Positions count from the first letter of the chain named.

What was measured:
[1] = target: T1, immunoglobulin-like transcript 4 (ILT4) (human, UniProt Q8N423 22-597); experiment: flow cytometry: rh-C4d (C4Ad per the FIG. 3a legend) titrated on Bw-ILT4 cells, detected with C4d-mMAb, Langmuir 1:1 isotherm; stated to be a minimum estimate (non-equilibrium assay)
T1 construct: Expressed on Bw5147 cells from a 2 kb retroviral insert; In the functional assays it is the native receptor on human monocytes; also called CD85d; LILRB2
T1 sequence (Q8N423 other isoform, or with tags, fused parts or gaps limits assumed): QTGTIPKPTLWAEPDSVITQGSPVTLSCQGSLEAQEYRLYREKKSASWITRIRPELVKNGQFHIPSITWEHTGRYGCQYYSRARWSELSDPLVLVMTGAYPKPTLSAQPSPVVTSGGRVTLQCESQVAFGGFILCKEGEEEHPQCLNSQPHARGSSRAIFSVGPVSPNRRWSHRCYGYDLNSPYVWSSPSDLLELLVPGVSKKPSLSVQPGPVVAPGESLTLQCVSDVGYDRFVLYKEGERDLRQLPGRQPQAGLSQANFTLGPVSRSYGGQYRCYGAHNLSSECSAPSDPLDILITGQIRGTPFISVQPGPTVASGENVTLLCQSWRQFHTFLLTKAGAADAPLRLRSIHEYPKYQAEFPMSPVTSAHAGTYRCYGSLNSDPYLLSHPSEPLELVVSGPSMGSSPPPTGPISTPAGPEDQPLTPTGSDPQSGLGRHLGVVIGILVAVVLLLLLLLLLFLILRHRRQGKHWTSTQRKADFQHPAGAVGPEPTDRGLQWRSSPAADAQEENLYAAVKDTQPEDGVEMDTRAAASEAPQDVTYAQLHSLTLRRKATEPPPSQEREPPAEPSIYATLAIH
Protocol: FIG. 3. Classical receptor-ligand interaction between C4d and ILT4. a Bw-ILT4 cells or control Bw cells (Bw-mock) were incubated with different concentrations of C4Ad and cell-bound C4Ad was measured by flow cytometry using C4d-mMAb for detection. Data obtained for C4Ad are representative for those using C4Bd, data not shown. Mean and standard deviation of triplicate measurements are shown. b Dissociation constant (Kd) of the C4d-ILT4 interaction assessed via Langmuir binding isotherm equation for single class 1:1 binding equilibrium based on data shown in FIG. 3a.
(§1) Flow cytometric analyses were performed via a FACSCalibur flow cytometrer (BD Biosciences, Franklin Lakes, N.J.) using 60,000 cells per sample resuspended in FACS-buffer. In experiments employing monocytes or moDCs, human IgG (Beriglobin P; CSL Behring, Vienna, Austria) was used at 20 mg/mL to block Fcγ receptors. For fluorescence-activated cell sorting (FACS), Bw cells expressing a retroviral cDNA expression library generated from moDC¹⁶ were incubated with biotinylated rh-C4Ad or rh-C4Bd (20m/mL each) in FACS-buffer for 30 minutes on ice followed by two washing steps and subsequent detection of bound biotinylated C4d molecules through incubation with SA-PE. FACS was performed using a FACSDiva (BD Biosciences).

[2] = target: T1, immunoglobulin-like transcript 4 (ILT4); experiment: flow cytometry, biotinylated C4d (20 µg/mL) on Bw cells expressing ILT4
From the text: FIG. 1. Identification of ILT4 as cellular receptor for C4d. a Flow cytometric analyses showing the interaction of biotinylated recombinant human C4d (20m/mL) of both isoforms, rh-C4Ad and rh-C4Bd, with monocytes and monocyte-derived dendritic cells (moDC; grey histograms). Open histograms represent the reactivity of the secondary reagent with these cells. SA-PE: streptavidin-R-PE. b C4d-reactive cells were enriched from a Bw cell pool expressing a cDNA library derived from human moDC by multiple rounds of FACS. Data obtained for rh-C4Bd are representative for those obtained using rh-C4Ad (data not shown). Sorting gates are shown. c Single cell clones derived from the C4d reactive Bw cell pool were probed with rh-C4Ad- and rh-C4Bd. MFI: mean fluorescence intensity. d PCR-amplification of the retroviral inserts of the C4d-b(C4Bd) binding clones 1.5 and 3.7. e Bw cells expressing a 2 kb retroviral insert encoding immunoglobulin-like transcript 4 (ILT4) were probed with biotinylated rh-C4Ad, rh-C4Bd and C4d isolated from human plasma (ih-C4d) each at 20m/mL or ILT4-specific mMAb (grey histograms). Open histograms represent reactivity of C4d molecules and ILT4 mMAb with control Bw-cells. f Monocytes and moDC were analyzed for ILT4 expression (grey histograms, ILT4-mMAb; open histograms, isotype control). […]

[3] = target: T2, isolated human C3b (ih-C3b) (human, UniProt P01024 749-1663; P01024 23-667, limits assumed, biotin on amino groups (Biotin-X-NHS) in flow cytometry; unlabelled in ELISA); experiment: flow cytometry, CSP on transduced Bw cells (FIG. 2a)
T2 construct: Multi-chain fragment
Protocol: (§2) FIG. 2. Interaction of ILT4 and ILT5v2 with C4d, C4b, C3d, C3b and iC3b. a Flow cytometric analysis of Bw cells transduced to express ILT2, ILT4 and ILT5-antigenic variants 1 and 2 (ILT5v1 and ILT5v2). Expression of ILT-receptors was verified with specific monoclonal antibodies (left panels, grey histograms; open histograms represent reactivity of ILT MAbs with mock treated Bw cells). Interaction of Bw cells expressing ILT-molecules and mock-treated Bw cells with the indicated CSPs (20 μg/mL each) and with MHC-class I tetramers (further panels, grey histograms). b Interaction of plate-bound CSPs with recombinant human ILT4-Fc fusion protein (rh-ILT4-Fc) or control Fc-fusion protein (rh-ILT3-Fc) was analyzed in an ELISA. c Bw cells transduced to express PIR-B, the murine ortholog of ILT4, were probed with a PIR-B-specific monoclonal antibody or with human CSPs and human MHC-class I tetramers.
(§3) Flow cytometric analyses were performed via a FACSCalibur flow cytometrer (BD Biosciences, Franklin Lakes, N.J.) using 60,000 cells per sample resuspended in FACS-buffer. In experiments employing monocytes or moDCs, human IgG (Beriglobin P; CSL Behring, Vienna, Austria) was used at 20 mg/mL to block Fcγ receptors. […]

[4] = target: T3, isolated human iC3b (ih-iC3b) (human, UniProt P01024 23-667; P01024 749-1303; P01024 1321-1663, limits assumed, biotin on amino groups (Biotin-X-NHS) in flow cytometry; unlabelled in ELISA); experiment: as above
T3 construct: Multi-chain fragment
Protocol: as §2, §3

[5] = target: T2, isolated human C3b (ih-C3b); experiment: flow cytometry, CSP on transduced Bw cells (FIG. 5a)
Protocol: (§4) FIG. 5. Flow cytometric analysis of the interaction of C4d, C3d, C4b, C3b and iC3b and human MHC class I tetramers with Bw cells transduced to express a ILT1 transcript variants 1 and 2 (ILT1v1 and ILT1v2), ILT3 and ILT7, b previously established complement receptors CD21, CD46 and CRIg, and c PIR-A transcript variant 1 (PIR-Avl), murine ortholog of ILT1. a-c left panels: Expression of transduced receptors was assessed using specific antibodies (grey histograms); open histograms represent reactivity of these antibodies with control Bw cells. d Plate-bound CSP were probed with a recombinant protein representing the human CD35 extracellular domain (rh-sCD35) via ELISA. BSA was used as a plate-bound ligand control; white control bars represent no rh-sCD35 added to the assay.
as §1, with “In experiments employing monocytes or moDCs, human IgG (Beriglobin P; CSL Behring, Vienna, Austria) was used at 20 mg/mL to block Fcγ receptors.” left out, “FACS was performed using a FACSDiva (BD Biosciences).” left out

[6] = target: T3, isolated human iC3b (ih-iC3b); experiment: as above
Protocol: as §4
as §1, with “In experiments employing monocytes or moDCs, human IgG (Beriglobin P; CSL Behring, Vienna, Austria) was used at 20 mg/mL to block Fcγ receptors.” left out, “FACS was performed using a FACSDiva (BD Biosciences).” left out

B1: recombinant human C4d, isoform C4d-A (rh-C4Ad) (ligand)
chain: TLEIPGNSDPNMIPDGDFNSYVRVTASDPLDTLGSEGALSPGGVASLLRLPRGCGEQTMIYLAPTLAASRYLDKTEQWSTLPPETKDHAVDLIQKGYMRIQQFRKADGSYAAWLSRDSSTWLTAFVLKVLSLAQEQVGGSPEKLQETSNWLLSQQQADGSFQDPCPVLDRSMQGGLVGNDETVALTAFVTIALHHGLAVFQDEGAEPLKQRVEASISKANSFLGEKASAGLLGAHAAAITAYALTLTKAPVDLLGVAHNNLMAMAQETGDNLYWGSVTGSQSNAVSPTPAPRNPSDPMPQAPALWIETTAYALLHLLLHEGKAEMADQASAWLTRQGSFQGGFRSTQDTVIALDALSAYWIASHTTEERGLNVTLSSTGR
modifications: biotin on amino groups (Biotin-X-NHS) or, when indicated, on the thioester cysteine C1010 (prepro numbering) via Iodoacetyl-LC-biotin; unlabelled in FIG. 3a and when used as competitor
notes: also called complement split product C4Ad; rh-C4d
B1 showed a Kd [1] of 630 nM.

B2: recombinant human C4d, isoform C4d-B (rh-C4Bd) (ligand)
chain: B1 chain with D117G, P164L, C165S, L168I, D169H, N220S, V251A, L254R, S330A
modifications: biotin on amino groups (Biotin-X-NHS) or, when indicated, on the thioester cysteine C1010 (prepro numbering) via Iodoacetyl-LC-biotin; unlabelled when used as competitor
notes: also called complement split product C4Bd; rh-C4d
B2: binds [2].

B3: ILT2 (receptor, human, UniProt Q8NHL6 24-650, looked up)
chain: GHLPKPTLWAEPGSVITQGSPVTLRCQGGQETQEYRLYREKKTALWITRIPQELVKKGQFPIPSITWEHAGRYRCYYGSDTAGRSESSDPLELVVTGAYIKPTLSAQPSPVVNSGGNVILQCDSQVAFDGFSLCKEGEDEHPQCLNSQPHARGSSRAIFSVGPVSPSRRWWYRCYAYDSNSPYEWSLPSDLLELLVLGVSKKPSLSVQPGPIVAPEETLTLQCGSDAGYNRFVLYKDGERDFLQLAGAQPQAGLSQANFTLGPVSRSYGGQYRCYGAHNLSSEWSAPSDPLDILIAGQFYDRVSLSVQPGPTVASGENVTLLCQSQGWMQTFLLTKEGAADDPWRLRSTYQSQKYQAEFPMGPVTSAHAGTYRCYGSQSSKPYLLTHPSDPLELVVSGPSGGPSSPTTGPTSTSGPEDQPLTPTGSDPQSGLGRHLGVVIGILVAVILLLLLLLLLFLILRHRRQGKHWTSTQRKADFQHPAGAVGPEPTDRGLQWRSSPAADAQEENLYAAVKHTQPEDGVEMDTRSPHDEDPQAVTYAEVKHSRPRREMASPPSPLSGEFLDTKDRQAEEDRQMDTEAAASEAPQDVTYAQLHSLTLRREATEPPPSQEGPSPAVPSIYATLAIH
notes: whole, on cells
B3: no binding (tested: 20 µg/mL) [3]; no binding (tested: 20 µg/mL) [4].

B4: ILT7 (receptor, human, UniProt P59901 24-499, looked up)
chain: ENLLKPILWAEPGPVITWHNPVTIWCQGTLEAQGYRLDKEGNSMSRHILKTLESENKVKLSIPSMMWEHAGRYHCYYQSPAGWSEPSDPLELVVTAYSRPTLSALPSPVVTSGVNVTLRCASRLGLGRFTLIEEGDHRLSWTLNSHQHNHGKFQALFPMGPLTFSNRGTFRCYGYENNTPYVWSEPSDPLQLLVSGVSRKPSLLTLQGPVVTPGENLTLQCGSDVGYIRYTLYKEGADGLPQRPGRQPQAGLSQANFTLSPVSRSYGGQYRCYGAHNVSSEWSAPSDPLDILIAGQISDRPSLSVQPGPTVTSGEKVTLLCQSWDPMFTFLLTKEGAAHPPLRLRSMYGAHKYQAEFPMSPVTSAHAGTYRCYGSRSSNPYLLSHPSEPLELVVSGATETLNPAQKKSDSKTAPHLQDYTVENLIRMGVAGLVLLFLGILLFEAQHSQRSPPRCSQEANSRKDNAPFRVVEPWEQI
notes: whole, on cells
B4: no binding [5]; no binding [6].
